Paper PMC8778164, “Towards Complete Tumor Resection: Novel Dual-Modality Probes for Improved Image-Guided Surgery of GRPR-Expressing Prostate Cancer” (Pharmaceutics, 2022)
Read-outs that look alike come from different tables or passages of the source.

Key:
[1] = Stability in PBS at 37 °C (iTLC); format: physicochemical; details: intact labeled ligand after incubation at 37 °C in PBS, n = 1
Experimental: (§1) Stability in PBS was determined by incubating 20 µL of the labeled compounds (∼11 MBq) in PBS (80 µL) at 37 °C. Radiochemical purity was determined by iTLC at 30 min, 1 h, 2 h and 4 h. Stability in the serum was carried out by adding 70 µL of the labeled compound (∼35 MBq) to 330 µL of mouse serum (Merck, Haarlerbergweg, The Netherlands). The mixture was incubated at 37 °C. At different time points (30 min, 1 h, 2 h and 4 h), an aliquot of the mixture (50 µL) was added to 50 µL ACN. The vial was vortexed and centrifuged at 10,000 rpm for 20 min and the supernatant was analyzed by iTLC.

[2] = Stability in mouse serum at 37 °C (iTLC); format: in vitro ADME
Experimental: as §1

[3] = Ex vivo biodistribution after SPECT/CT scanning; format: in vivo, mouse; details: mouse, iv, ~3 h p.i.; for tissue to tissue ratio: male, Balb/c nu/nu, total radioactivity, radioactivity; for tissue uptake at 3 h: PC-3 xenograft mice, i.v.
Experimental: (§2) Seven-week-old male Balb/c nu/nu-specific and opportunistic pathogen-free (SOPF) mice (Janvier Labs, Le Genest-Saint-Isle, France) were housed in individually ventilated cages, with 4 mice per cage. Upon arrival, mice were acclimated for 1 week, with access to food and water ad libitum. Mice were subcutaneously inoculated on the right shoulder with PC-3 cells (5 × 10^6 cells suspended in 100 µL of 1/3 Matrigel (Corning Inc., Corning, NY, USA) and 2/3 Hank’s balanced salt solution (Gibco). PC-3 xenografts were allowed to grow for 3 weeks. Tumor sizes were 391 ± 173 mm^3 at the start of the studies. All animal experiments were approved by the Animal Welfare Committee of the Erasmus MC and were conducted in agreement with institutional guidelines (license number: AVD101002017867, 28 September 2017).
(§3) To determine the biodistribution of the compounds after imaging (~3 h p.i.), blood was collected via cardiac puncture under isoflurane/O2 anesthesia, after which the mice were sacrificed. The tumor and organs of interest (prostate, pancreas, spleen, liver, GI tract (stomach, small intestine, cecum, large intestine), kidneys, lungs, heart, muscle, bone, and brain) were excised, washed in PBS and blotted dry. The stomach, intestines and cecum were emptied of their contents. The tumor was cut in half; one half was fresh-frozen for further analysis and the other half was collected for ex vivo optical imaging and radioactivity measurements. After imaging, the blood, tumor, and relevant organs were weighed and measured in a γ-counter. To determine the total injected radioactivity per animal, samples of the injected solutions were measured as well. The percentage of injected dose per gram (%ID/g) was determined for each tissue sample and corrected for both the injected volume and %ID present at the injection site (the tail). Because the low weight of the prostate limited accurate organ weight measurements, the average prostate weight of all animals was used.

[4] = test system: PC-3-xenograft Balb/c nu/nu mice; experiment: Ex vivo biodistribution after SPECT/CT scanning; format: in vivo, mouse; details: radioactivity, ~3 h p.i.
Experimental: as §2, §3

[5] = blocked with 150 nmol unlabeled NeoB, n = 1

CC(C)CC(CC(C)C)NC(=O)[C@H](Cc1c[nH]cn1)NC(=O)CNC(=O)[C@@H](NC(=O)[C@H](C)NC(=O)[C@H](Cc1c[nH]c2ccccc12)NC(=O)[C@H](CCC(N)=O)NC(=O)[C@@H](Cc1ccccc1)NC(=O)COCC(=O)Nc1ccc(CNC(=O)[C@H](CCCCNC(=O)CCOCCOCCOCCOCCNC(=O)OC2CCCC3C=NN=C(c4ccc(CNC(=O)CCCCC[N+]5=C(/C=C/C=C/C=C6N(C)c7ccc(S(=O)(=O)O)cc7C6(C)C)C(C)(C)c6cc(S(=O)(=O)[O-])ccc65)cc4)C3CC2)NC(=O)CN2CCN(CC(=O)O)CCN(CC(=O)O)CCN(CC(=O)O)CC2)cc1)C(C)C (some centres unmarked) [[^111In]In-12, metal not drawn]
Stability in PBS (%) 30 min ([1]; 30 min): 85.8% | Stability in PBS (%) 1 h ([1]; 1 h): 80.1% | Stability in PBS (%) 2 h ([1]; 2 h): 75.0% | Stability in PBS (%) 4 h ([1]; 4 h): 73.1% | Stability in Mouse Serum (%) 30 min ([2]; intact labeled ligand after incubation at 37 °C in mouse serum, 30 min, n = 1): 96.3% | Stability in Mouse Serum (%) 1 h ([2]; intact labeled ligand after incubation at 37 °C in mouse serum, 1 h, n = 1): 96.4% | Stability in Mouse Serum (%) 2 h ([2]; intact labeled ligand after incubation at 37 °C in mouse serum, 2 h, n = 1): 96.5% | Stability in Mouse Serum (%) 4 h ([2]; intact labeled ligand after incubation at 37 °C in mouse serum, 4 h, n = 1): 96.5% | Protein-Bound Fraction at 4 h (%) ([2]; mouse serum, 4 h): 7.0% | tissue to tissue ratio ([3]; tumor and blood, non-blocked, n = 3, read-out: Tumor-to-blood ratio): 1.09 ± 0.15 | tissue to tissue ratio ([3]; tumor and kidney, blocked with 150 nmol unlabeled NeoB, n = 1, read-out: Tumor-to-kidney ratio): 0.16 | tissue to tissue ratio ([3]; tumor and kidney, non-blocked, n = 3, read-out: Tumor-to-kidney ratio): 0.34 ± 0.05 | tissue to tissue ratio ([3]; tumor and liver, blocked with 150 nmol unlabeled NeoB, n = 1, read-out: Tumor-to-liver ratio): 0.14 | tissue to tissue ratio ([3]; tumor and liver, non-blocked, n = 3, read-out: Tumor-to-liver ratio): 0.55 ± 0.04 | tissue to tissue ratio ([3]; tumor and muscle, blocked with 150 nmol unlabeled NeoB, n = 1, read-out: Tumor-to-muscle ratio): 2.62 | tissue to tissue ratio ([3]; tumor and muscle, non-blocked, n = 3, read-out: Tumor-to-muscle ratio): 9.04 ± 1.74 | tissue to tissue ratio ([3]; tumor and pancreas, blocked with 150 nmol unlabeled NeoB, n = 1, read-out: Tumor-to-pancreas ratio): 2.16 | tissue to tissue ratio ([3]; tumor and pancreas, non-blocked, n = 3, read-out: Tumor-to-pancreas ratio): 0.51 ± 0.03 | tissue uptake at 3 h ([3]; blood, blocked with 150 nmol unlabeled NeoB, n = 1, read-out: Blood uptake): 7.31 %ID/g | tissue uptake at 3 h ([3]; blood, non-blocked, n = 3, read-out: Blood uptake): 7.83 ± 0.84 %ID/g | tissue uptake at 3 h ([3]; bone, blocked with 150 nmol unlabeled NeoB, n = 1, read-out: Bone uptake): 1.87 %ID/g | tissue uptake at 3 h ([3]; bone, non-blocked, n = 3, read-out: Bone uptake): 2.03 ± 0.89 %ID/g | tissue uptake at 3 h ([3]; brain, blocked with 150 nmol unlabeled NeoB, n = 1, read-out: Brain uptake): 0.2 %ID/g | tissue uptake at 3 h ([3]; brain, non-blocked, n = 3, read-out: Brain uptake): 0.2 ± 0.03 %ID/g | tissue uptake at 3 h ([3]; cecum, blocked with 150 nmol unlabeled NeoB, n = 1, read-out: Cecum uptake): 2.35 %ID/g | tissue uptake at 3 h ([3]; cecum, non-blocked, n = 3, read-out: Cecum uptake): 3.73 ± 0.4 %ID/g | tissue uptake at 3 h ([3]; heart, blocked with 150 nmol unlabeled NeoB, n = 1, read-out: Heart uptake): 2.24 %ID/g | tissue uptake at 3 h ([3]; heart, non-blocked, n = 3, read-out: Heart uptake): 2.39 ± 0.23 %ID/g | tissue uptake at 3 h ([3]; kidneys, blocked with 150 nmol unlabeled NeoB, n = 1, read-out: Kidneys uptake): 17.1 %ID/g | tissue uptake at 3 h ([3]; kidneys, non-blocked, n = 3, read-out: Kidneys uptake): 24.9 ± 2.78 %ID/g | tissue uptake at 3 h ([3]; large intestine, blocked with 150 nmol unlabeled NeoB, n = 1, read-out: Large intestine uptake): 2.06 %ID/g | tissue uptake at 3 h ([3]; large intestine, non-blocked, n = 3, read-out: Large intestine uptake): 3.88 ± 0.4 %ID/g | tissue uptake at 3 h ([3]; liver, blocked with 150 nmol unlabeled NeoB, n = 1, read-out: Liver uptake): 20 %ID/g | tissue uptake at 3 h ([3]; liver, non-blocked, n = 3, read-out: Liver uptake): 15.3 ± 0.43 %ID/g | tissue uptake at 3 h ([3]; lungs, blocked with 150 nmol unlabeled NeoB, n = 1, read-out: Lungs uptake): 16.1 %ID/g | tissue uptake at 3 h ([3]; lungs, non-blocked, n = 3, read-out: Lungs uptake): 6.51 ± 1.15 %ID/g | tissue uptake at 3 h ([3]; muscle, blocked with 150 nmol unlabeled NeoB, n = 1, read-out: Muscle uptake): 1.04 %ID/g | tissue uptake at 3 h ([3]; muscle, non-blocked, n = 3, read-out: Muscle uptake): 0.96 ± 0.16 %ID/g | tissue uptake at 3 h ([3]; pancreas, blocked with 150 nmol unlabeled NeoB, n = 1, read-out: Pancreas uptake): 1.26 %ID/g | tissue uptake at 3 h ([3]; pancreas, non-blocked, n = 3, read-out: Pancreas uptake): 16.6 ± 1.41 %ID/g | tissue uptake at 3 h ([3]; prostate, blocked with 150 nmol unlabeled NeoB, n = 1, read-out: Prostate uptake): 4.36 %ID/g | tissue uptake at 3 h ([3]; prostate, non-blocked, n = 3, read-out: Prostate uptake): 3.56 ± 1.62 %ID/g | tissue uptake at 3 h ([3]; small intestine, blocked with 150 nmol unlabeled NeoB, n = 1, read-out: Small intestine uptake): 1.45 %ID/g | tissue uptake at 3 h ([3]; small intestine, non-blocked, n = 3, read-out: Small intestine uptake): 4.4 ± 2.45 %ID/g | tissue uptake at 3 h ([3]; spleen, blocked with 150 nmol unlabeled NeoB, n = 1, read-out: Spleen uptake): 3.32 %ID/g | tissue uptake at 3 h ([3]; spleen, non-blocked, n = 3, read-out: Spleen uptake): 4.11 ± 0.94 %ID/g | tissue uptake at 3 h ([3]; stomach, blocked with 150 nmol unlabeled NeoB, n = 1, read-out: Stomach uptake): 3.12 %ID/g | tissue uptake at 3 h ([3]; stomach, non-blocked, n = 3, read-out: Stomach uptake): 3.22 ± 0.54 %ID/g | tissue uptake at 3 h ([3]; tumor, blocked with 150 nmol unlabeled NeoB, n = 1, read-out: Tumor uptake): 2.72 %ID/g | tissue uptake at 3 h ([3]; tumor, non-blocked, n = 3, read-out: Tumor uptake): 8.47 ± 0.46 %ID/g | Tumor-to-blood ratio [4, 5]: 0.37 | Tumor-to-prostate ratio [4, 5]: 0.62 | Tumor-to-prostate ratio ([4]; non-blocked, n = 3): 2.86 ± 1.58
